Measurements published in article PMC11576661, “Biocatalytic sulfation of aromatic and aliphatic alcohols catalyzed by arylsulfate sulfotransferases” (Applied Microbiology and Biotechnology, 2024).

Legend:
Assay in all cases: purified protein
Conditions in all cases: apparent, sulfate donor, acceptor phenol 100 mM, Tris/HCl 50 mM pH 8.0, 30 °C
[1] = substrate: O=[N+]([O-])c1ccc(OS(=O)(=O)O)cc1; assay type: biochemical, Desulfitobacterium hafniense
[2] = substrate: O=[N+]([O-])c1ccc(OS(=O)(=O)O)cc1; assay type: biochemical, Dehalobacterium formicoaceticum
[3] = substrate: O=[N+]([O-])c1ccc(OS(=O)(=O)O)cc1; assay type: biochemical, Hungatella effluvii
[4] = substrate: O=[N+]([O-])c1ccc(OS(=O)(=O)O)cc1; assay type: biochemical, Desulfitobacterium dehalogenans
[5] = substrate: O=[N+]([O-])c1ccc(OS(=O)(=O)O)cc1; assay type: biochemical, Desulfosporosinus orientis

B1: ASSTC (Desulfitobacterium hafniense) (protein)
chain: MVDYEYCPHIITKQNELEKAFMEKFEAGNYSLENPLVILNPYGVAPLTAMILFNTPIACEAKIIVKGKEHPGDIQHTFPAATRHILPVYGLYGGYKNTIKIILSTSSSNTITIQTEPLPKSVAIPSSIKTTSEYMGNNLMFLSPSMASLTVGYDYAGDVRWYCSLNVCFDLKRMPNGHLLIGTGRLVKVPYYTSGLYEMAFSGKIFKEFILPGGYHHDQFVMEDGNLLVLTQDFYADTVEDVCVLIDPHSGDILKKWDFKNILPQDVAGSGTQTAHDWFHNNAVWYDNRTNSLTLSGRHQDVIINIDYETGGLNWMIGDPEGWPQELVDKYFFTPAGDGEFDWQYEQHGCVVLPDGDIMVFDNGHYRSKNKENYRLNKDNFSRGVRYRIDTERMTIQQIWQYGKERGADFFSPFICNVEYYDEGHYMVHSGGIGYENGKPCEGLAVGKSKNPKFKDNVYTLNSITCELVNDELVYELQVPANFYRAEKLPIYYANEVAELCEGQRLGQFVETQTTRMKIKALETKEPIPEHYQAKIVEEEDRFCLNAIYESGETAQLLLVSESDEILRYPINTVAQAYGAMCVGTFQKSDPRNVDTFVTKTGLSGKYQVKLVAEDKIYETGVTISA
notes: recombinant from E. coli BL21(DE3), C-terminal His-tag, IMAC purified, about 70-76 kDa
Question: Which Km [1] does the source give for B1 here?
Answer: 200 µM

Question: What about the Vmax [1] of the same protein?
Answer: 0.6 µmol/min/mg

Question: What about the kcat [1] of the same protein?
Answer: 0.7 s⁻¹

Question: And the kcat/Km [1]?
Answer: 3600 M⁻¹ s⁻¹

B2: ASSTDfor (Dehalobacterium formicoaceticum) (protein)
chain: MNAIKSEQVPHIIHQQEKLEKAFLAEFAAGGYTLYNPLVKINPYGICPLTAMVLFETPVATEATVVVRGKEHLGDIRHTFPAGKKHILPIYGLYADYENKIELIMANGQKNTIKIQTEPLHTDVPVATSIKTTPEYMGNNLMFLTAAMRSMPVGYDYAGDIRWYATKNFAFDLKRLPNGHILVGTERLVKMPYFTTGLYEMAFSGKIFKEYVLPSGYHHDQFPMEDGNILVLTFDFYSGTVEDMCVLLDAKTGEVLKSWDYKKVLPQDVAGSGSQDEHDWFHNNAVWYDKKTNSLSLSGRHQDAVINIDYETGELNWIIGDPEGWPKEMVDKYFFTPVGDGDFDWQYEQHACVVLPDGDIMLFDNGHFRAKNKENYWPNSKNFSRGVRYRIDTEKMTIKQVWQYGKERGAEFFSPYICNVEYYNEGHYLVHSGGIGYENGKPCEGMAVMKTMQPEFKDNVYTFNSITCELKDDVLMYELQVPANCYRAEKLPLYYANETAELGAGEILGNLIKTEETKMKIKAEETGALVPDHFQASITEEEDRFLFNAIFDAGEMAQLLLVNEAGEIKRYPINTVPQAFQAMCVGTFQKADPRNIDTFINKIGLSGNYQVKLVAEEKVYETGVTIKA
notes: as for B1
Question: How did the Km [2] turn out when B2 was run?
Answer: 500 µM

Question: And the Vmax [2]?
Answer: 5.3 µmol/min/mg

Question: And the kcat [2]?
Answer: 6.3 s⁻¹

Question: What about the kcat/Km [2] of the same protein?
Answer: 12600 M⁻¹ s⁻¹

B3: ASSTHeff (Hungatella effluvii) (protein)
chain: MIRYEKKNSLITQQAEAEQKFLETFEAGAYTASSPLVVRNPYLISPLSAMILFKTAVKQEVTLTVKGKEPEGDISHTFPADTIHILPVYGLYADCENTVELILSGGERETVMIKTEPLPPEVPVPTFCKGSGAHMGDNVIFLTQTSKADALACDYRGDVRWYLTVNVCFDMKRLANGHLLVGTDRLIKLPYYVSGVYEMGVHGKIYREYRLPGGYHHDTFEMEDGNILMLSQIPDRDTVEDVLVLVNRQTGAIVRTWDYREILPYDCQTTWSGSASAHDWFHNNAVWYDKKTDSITLSGRHQDAVINIDFKTGALNWILGDPEGWPEEYVEKYFFRPISEPFEWSYEQHGVVVCPDGDIMMFDNGHYRSKLKAHYSKAKDSYSRGVRYHIDREARTIEQVWQYGKERGADFFSPYICNVEYYDEGRYMVHSGGIAYKDGEPLEGLGSMDGTGEGCTLNAITCELVNDEVVYELHVPSNVFRAEKLPMYYAGETAELGAGKTLGSMSRTGEFETEIPAVCTGDLIPEHYEASVTEEEDRILFNATFEKGELAMLLLEEEDGKAHRYYINTSAAKNFEAMCVGTFLKNDPRNVDVYVNKCGMSKNVKVRVLLEDKIYETGVEIRME
notes: as for B1
Question: How did the Km [3] turn out when B3 was run?
Answer: 2100 µM

Question: And the Vmax [3]?
Answer: 39.8 µmol/min/mg

Question: And the kcat [3]?
Answer: 46.9 s⁻¹

Question: And the kcat/Km [3]?
Answer: 22300 M⁻¹ s⁻¹

B4: ASSTDdeh (Desulfitobacterium dehalogenans ATCC 51507) (protein)
chain: MMNPIKSEQIPHIIHRQKDFEEAFLAEFSAGHYTLANPLVELNPYEICPLTAMILFETPVSTEATIIVRGKEHPGDIRHTFPANKKHILPIYGLYADYENKVEIVLANGQRNTVTIKTGPLHPDVPVATSIKTTSEYMGNNLMFLTAAMKAMPVGYDYAGEVRWYATRNFAFDLKRIPNGHILIGTERLVKMPYFTTGLYEMAFSGKIFKEYRLPSGYHHDQFVMEDGNILVLTFDFYSGTVEDMCVLLDAETGEILKSWDYKKVLPQDVAGSGSQDAHDWFHNNAVWYDRKTNSLSLSGRHQDAVINIDYETGELNWIIGDPEGWPQDMVDQYFFTPVGEGEFDWQYEQHACVVLPDGDIMLFDNGHFRAKNKENYLPNSQNFSRGVRYRIDTEKMTIEQVWQYGKERGAEFFSPYICNVEYYDEGHYLVHSGGIGYENGETCEGMAVMKVLQPEFKDNVYTFNSITCELKDDVLMYELQVPANCYRAEKLPLYYAYETAELGEGKILGNLVETQETKMKIKAVETGERVPDHYEASITEEEDRILLNAIFDAGELAQLLLVDGDGGVKRYPISTVPQAFQAMCVGTFQKADPRNIDVYINKTGLSGKYQVKLIAEEKLYETGVSITA
notes: as for B1
Question: B4 was tested. Which Km [4] did it give?
Answer: 400 µM

Question: What about the Vmax [4] of the same protein?
Answer: 21.2 µmol/min/mg

Question: What about the kcat [4] of the same protein?
Answer: 25.3 s⁻¹

Question: What about the kcat/Km [4] of the same protein?
Answer: 63200 M⁻¹ s⁻¹

B5: ASSTDor (Desulfosporosinus orientis DSM 765) (protein)
chain: MSVKFKSFDHIITEQYQAEQAFLTEYQKGEYSFNNPYVKLNPYIIAPLTALVMFKTAQPTTVTITVKGKDKNGDICFNFPTAIEHLIPVYGLYANYANKVELALGDGKTNVITIQTEAAPEIVKLPTQINTTADYFEDNIMFVSPTSTAATAGYDYNGDVRWYGSLNFAFDIKRAKNGRLLLGTHRLVTPPYHTTGLYEMGMIGKIYKEYRLPSGYHHDQFEMEDGNLLILSQDLPRGTVEDMCVLVDRKTGQIIKSWDYQKVLPTNAGGSGSQDSHDWFHNNAVWYDKKTNSLTLSGRHQDIIINLDFETGALNWIIGDPEGWPKELVDNYFFKPVGKGEFDWQYEQHACVVCPNGDIMAFDNGHWRSKIKENYVTANDNFSRGVRYRIDTKKMEIEQVWQYGKERGAEFFSTYICNVEYYDEGHYLIHSGGIGSIDGEALNKPPVQFRGEDEKKVVFNSITVELKDDVMMYEMQLPANYYRAEKLKLYAAEDVLTLGKGELLGTLGVTEEFTTIPPAEEGGMVPEKYNVKLGLEEDRLIFKATFEKGQMVLLQLEGETTHSYFVPTTKRPFLAMCVGTFQESDDRAVEFPVSREGLAGGFRVSLIVDAYKYETGVTIKL
notes: as for B1
Question: B5 was tested. Which Km [5] did it give?
Answer: 1000 µM

Question: And the Vmax [5]?
Answer: 0.5 µmol/min/mg

Question: What about the kcat [5] of the same protein?
Answer: 0.6 s⁻¹

Question: What about the kcat/Km [5] of the same protein?
Answer: 600 M⁻¹ s⁻¹
